The source of these data is patent publication US20230287080A1 (published 2023).

Test [1] addresses T1, NY-ESO-1 peptide on HLA-A*02:01 (human).
T1 peptide: SLLMWITQC
As to the kind of experiment: multimer staining.

Test [2] concerns the target T1, NY-ESO-1 peptide on HLA-A*02:01. As to the kind of experiment: activation reporter or marker. How it is done: NY7 variant TCRs isolated by the work flow above were then functionally tested for potency and specificity. TCRs were expressed in Jurkat cells using a lentivirus vector, and TCR-expressing Jurkat cells were co-cultured with T2 cells and a varying dose of the NY-ESO-1 peptide. Activation was measured by luminescence using an NFAT-Luciferase reporter.

Positions count from the first letter of the chain named.

B1: NY7JSY (TCR, V domains shown)
Valpha: QKEVEQNSGPLSVPEGAIASLNCTYSDRGSQSFFWYRQYSGKSPELIMFIYSNGDKEDGRFTAQLNKASQYVSLLIRDSQPSDSATYLCAVMRAGGFKTIFGAGTRLFVKA
Vbeta: DSGVTQTPKHLITATGQRVTLRCSPRSGDLSVYWYQQSLDQGLQFLIQYYNGEERAKGNILERFSAQQFPDLHSELNLSSLELGDSALYFCASSVVDGEQYFGPGTRLTVT
As to B1, in test [1], the binding result is listed as “recognises”.

B2: NY7 variant, Table A TCR ID 5 (TCR, V domains shown)
Valpha: B1 Valpha with G29W
Vbeta: B1 Vbeta
With B2, the binding result in test [2] was “recognises”.
